Data as given in publication PMC4631386, “Identification and Characterization of the Interaction Site between cFLIPL and Calmodulin” (PLoS ONE, 2015).

Biological target: T1, His-tagged human calmodulin (recombinant) (human, UniProt P0DP24 1-149)
T1 construct: human calmodulin, CALM2 cDNA (OriGene SC125707) in a modified pET16b with a TEV site between the N-terminal polyhistidine tag and the protein; also called free calmodulin; recombinant calmodulin; not shown: polyhistidine, N-terminal, kept
Test: ELISA; competition: calmodulin immobilised, GST-DED1 held at its KD concentration, R4 peptide titrated; anti-GST AlexaFluor 488 detection
Conditions: both partners purified

- IC50: 63 µM
B1: DED1 R4 peptide (peptide)
peptide: VRRFDLLKRILK
notes: cFLIP DED1 region 4, V62-K73, twelve amino acids; also called region 4; source: synthetic peptide (Tufts University Core Facility)
